From the RNAGym collection of RNA variant scans (doi:10.1073/pnas.2313332121)

B1: TPR t1 (parent)
chain: GACCAAUCUGCCCUCAGAGCUCGAGAACAUCUUCGGAUGCAGAGGAGGCAGGCUUCGGUGGCGCGAUAGCGCCAACGUCCUCAACCUCCAAUGCAUCCCACCACAUGAUGAUGCCUGAAGAGCCUUGGUUUUUUG

Variants of: B1
Assay: polymerase ribozyme fitness, log enrichment relative to wild type (log ratio); higher = more active; in vitro selection for triplet polymerase activity
Procedure, shortened: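 Genotype fitness is the logarithm of its enrichment divided by wild-type enrichment, using inverse-variance-weighted averages of replicates. That logarithm is base 2. Enrichment was measured by Illumina sequencing of input and output libraries from one triplicate in vitro selection round, with frozen incubation at −7 °C, on PCR-built, transcribed mutant libraries of each subunit of a heterodimeric triplet polymerase ribozyme, retaining genotypes with ≥10 input reads and ≥1 read per output.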

Row | Variant | polymerase ribozyme fitness (log ratio)
1 | G63A C85A | -2.01
2 | A16U G117A | -2.22
3 | C22U A66U G120A | -4.81
4 | G61A C88G U129A | -1.82
5 | U32A C72U | -5
6 | A29U G69C C98U G113C | -4.71
7 | A27U | -2.89
8 | C3U U81G | -4.04
9 | C12G G48C G135U | -1.51
10 | C15U G39C A66U G69C A75U | -3.53
11 | G69A A84U A91G | -6.33
12 | A5C A24G U87C | -3.15
13 | A111G G122U U129C | -5.05
14 | A6C C85G U92A U112G | -6.59
15 | U9A C22G G51A C56G C123A | -3.28
16 | A37U A41U A50C C115U | -4.64
17 | A50G G93C U109A G117C | -6.26
18 | U9C G63U C104U | -0.467
19 | G51U G58U G63A G117C | -6.73
20 | C99U C115A | -3.86
21 | A46C G69U G135U | -0.586

Row | Variant | polymerase ribozyme fitness (log ratio)
22 | G48A G71C G117A | -1.66
23 | C49U C62A C115A G122A | -2.37
24 | G45C U55A C56A | -2.11
25 | G44C G63U | -1.98
26 | C12U A41C G60C G128C | -3.6
27 | G77U C79A | -2.32
28 | C89A G113C G117A | -5.73
29 | C3A C62U A105G | -4.05
30 | A46G G63C A84G C88U C124U | -0.641
31 | A5U C11G C56U | -0.378
32 | C8G G44C C49A C123G | 0.185
33 | C62U U78A U96C | -0.0957
34 | C8A C53G | -0.744
35 | U32C A46G U109A | -3.86
36 | C11G C15U G25C A111C A118G | -6.56
37 | C8G C15U U54G G117C | 0.947
38 | C13G C22G C72G C94U C99A G120C | -6.57
39 | C11U G77U U112C | 1.4
40 | C49G C70A | -2.2
41 | A66G U106G | -3.66
42 | A2C G63U C124U | -1.65

Row | Variant | polymerase ribozyme fitness (log ratio)
43 | A37U A43U C73A U96C A111C U112A | -4.83
44 | C86A G110A C123G | -1.37
45 | G110U U112C | -2.02
46 | C13G C82U | -2.11
47 | A46U C53A | -0.885
48 | C8U C40U G60A C82A G120U | 1.65
49 | C15U G19A C89A | -5.15
50 | U9A U96G | -0.342
51 | A105U A111U | -5.69
52 | U32G C49A C70U A74G A83G G93C C114A U125G | -7.4
53 | C8G G71A C82U C101A | -1.2
54 | A18C C20U G110C | -6.35
55 | A66C U130C | -0.918
56 | C15U G17C A121C | -2.22
57 | C8U G93A G110U G127C | -2.37
58 | C8G C70U C80A C94G | -5.61
59 | U33C G69U | -1.74
60 | C8A G57U A66G C76U A90U | -4.82
61 | U54C U81C A95C | -0.789
62 | C72A U129A | -1.32
63 | G45U C56G C73A U116C | -4.92

Row | Variant | polymerase ribozyme fitness (log ratio)
64 | A6U A26U G36C G63C | -5.14
65 | C13U U131A | -0.274
66 | C70G A105U G113A | -6.59
67 | A27U G135U | -4.15
68 | U7G G10U C15A U54A C72G C104A | -2.9
69 | C15G C89U A90G | -2.42
70 | G63U C104A U133A | -3.31
71 | C12A A75U A111C | 0.286
72 | A18G C49A C64U C79U G120C G128U | -3.3
73 | G52U C72U U78C A121C | 1.26
74 | C40G G52A U78A C101A G120U | -2
75 | G58U G60A G77U | 0.541
76 | U9A C64U A66G | -3.02
77 | G63A A84U C115A U125G | -0.899
78 | C64A G117C | -6.03
79 | C8G A50G G63A U112A G122A | -1.09
80 | U116A G120U | -1.5
81 | C12G G36A C94A | -3.18
82 | G35C G45U G61A A121G | -3.1
83 | G58C U59G A95U G122A | -0.6
84 | U9C C101G C104U U116C | -2.48
